Source: the DeepSol protein solubility set

Assay: soluble on expression in E. coli; label from the status in PepcDB or PDB records

| Sequence | soluble on expression in E. coli |
| --- | --- |
| MMAYSDTTMMSDDIDWLRSHRGVCKVDLYNPEGQQDQDRKVICFVDVSTLNVEDKDYKDAASSSSEGNLNLGSLEEKEIIVIKDTEKKDQSKTEGSVCLFKQAPSDPVSVLNWLLSDLQKYALGFQHALSPSTSTCKHKVGDTEGEYHRASSENCYSVYADQVNIDYLMNRPQNLRLEMTAAKNTNNNQSPSAPPAKPPSTQRAVISPDGECSIDDLSFYVNRLSSLVIQMAHKEIKEKLEGKSKCLHHSICPSPGNKERISPRTPASKIASEMAYEAVELTAAEMRGTGEESREGGQKSFLYSELSNKSKSGDKQMSQRESKEFADSISKGLMVYANQVASDMMVSLMKTLKVHSSGKPIPASVVLKRVLLRHTKEIVSDLIDSCMKNLHNITGVLMTDSDFVSAVKRNLFNQWKQNATDIMEAMLKRLVSALIGEEKETKSQSLSYASLKAGSHDPKCRNQSLEFSTMKAEMKERDKGKMKSDPCKSLTSAEKVGEHILKEGLTIWNQKQGNSCKVATKACSNKDEKGEKINASTDSLAKDLIVSALKLIQYHLTQQTKGKDTCEEDCPGSTMGYMAQSTQYEKCGGGQSAKALSVKQLESHRAPGPSTCQKENQHLDSQKMDMSNIVLMLIQKLLNENPFKCEDPCEGENKCSEPRASKAASMSNRSDKAEEQCQEHQELDCTSGMKQANGQFIDKLVESVMKLCLIMAKYSNDGAALAELEEQAASANKPNFRGTRCIHSGAMPQNYQDSLGHEVIVNNQCSTNSLQKQLQAVLQWIAASQFNVPMLYFMGDKDGQLEKLPQVSAKAAEKGYSVGGLLQEVMKFAKERQPDEAVGKVARKQLLDWLLANL | not soluble |
| MWYQKTLTLSAKSRGFHLVTDEILNQLADMPRVNIGLLHLLLQHTSASLTLNENCDPTVRHDMERFFLRTVPDNGNYEHDYEGADDMPSHIKSSMLGTSLVLPVHKGRIQTGTWQGIWLGEHRIHGGSRRIIATLQGELEHHHHHH | soluble |
| MAHHHHHHMEDAQSGRASFSLRVPLCELLPKDSSLTDSPQNAVNLLYTICFSNTELKLRMKVTNTSEEQSAPFQFAFHTYFAVSDVSRTVVSGVNRSPFVDNCKARGNPDAPPSPPEQLWIIRGEHDRVYPDQACAIVLQDMGAKTTLQISSPNLSDVCLWNPGESKCAAMKDMPPDGYKHFVCVEHGKMLKKVVVPPCSSWTGTQEIAIIAESPHESSI | not soluble |
| MPKASLIIRERGLPKREVLLSPDRQWTIGRQLDCSIRLTDAYVSRLHAVINAFLFRGQPLYFIRDAHSRNGTFLNGFPLQHSTLLHHEDVIGVGTTLLVFYYPDMFREISLDECPLEHHHHHH | soluble |
| STQACPQPKTLDEFTIIQNLQPQYQFRDYFIATCKQGYQLIEGNQVLHSFTAVCQDDGTWHRAMPRCKIKDCGQPRNLPNGDFRYTTTMGVNTYKARIQYYCHEPYYKMQTRAGSRESEQGVYTCTAQGIWKNEQKGEKIPRCLPVCGKPVNPVEQRQR | soluble |
| SVGTSCIPGMAIPHNPLDSCRWYVSTRTCGVGPRLATQEMKARCCRQLEAIPAYCRCEAVRILMDGVVTSSGQHEGRLLQDLPGCPRQVQRAFAPKLVTEVECNLATIHGGPFCLSLLGAGE | soluble |
| MTTPNTQLWEVFIRSRNGLAHKHVGSLHAADATLALQAARDIYTRRGEGLSIWVVPSNAITASDPAEAGMLFEPAESKIYRHPTFYEVPDEVGHM | not soluble |
| MGSDKIHHHHHHMITFIGHVSKDVNVVDGKREIAYGGGVVMGAITSSLLGVKTKVITKCTREDVSKFSFLRDNGVEVVFLKSPRTTSIENRYGSDPDTRESFLISAADPFTESDLAFIEGEAVHINPLWYGEFPEDLIPVLRRKVMFLSADAQGFVRVPENEKLVYRDWEMKEKYLKYLDLFKVDSREAETLTGTNDLRESCRIIRSFGAKIILATHASGVIVFDGNFYEASFRSWSLEGRTGRGDTCTAAFLVGFVFKKMSIEKATKFAAAVTSVKMRHPGPLRREDLEAISGDQYF | soluble |
| SATREWFVMNAQQTKLALESPPLFAVKKDDDKDHTCDTGEEPYALVGSPVFNPLEDYKREVVSIIDEYFSSGDVEVAASDLMDLGLSEYHPYFVKRLVSMAMDRGNKEKEKASVLLSRLYALVVSPDQIRVGFIRLLESVGDLALDIPDAVNVLALFIARAIVDEILPPVFLARAKKTLPHSSQGFQVILVSENSYLSAPHHAELVETKWGGSTHITVEETKRKISEFLNEYVENGDTREACRCIRELGVSFFHHEIVKSGLVLVMESRTSEPLILKLLKEATEEGLISSSQMAKGFSRVADSLDDLSLDIPSAKTLFESIVPKAIIGGWLDEDSFKERSDQNGGSENLRRFKKDAETIIQEYFLSDDIPELIRSLEDLGLPEYNPVFLKKLITLAMDRKNKEKEMASVFLASLHMEMFSTEDFINGFIMLLESAEDTALDILAASDELALFLARAVIDDVLAPLNLEEISNSLPPKSTGSETIRSARSLISARHAGERLLRSWGGGTGWAVEDAKDKIWKLLEEYEVGGVISEACRCIRDLGMPFFNHEVVKKALVMAMEKKNDRMLNLLQECFAEGIITTNQMTKGFGRVKDSLDDLSLDIPNAEEKFNSYVAHAEENGWLHRDFGCSTDS | soluble |
| MTTNIAANSGGIVFHFLGTGGAQQVPAFGCECEVCQQAQRNESKRRRACCAAITTKDRIILIDAGLPELSPYLLPYPQRHILLTHYHMDHVQGLFPLRWGYGEPIPVFGPPDEAGCDDLFKHPGILHFQKPLMAFQPFELDGIRITPVPLIHSKLTYGYLIQTPTHTLAYLTDTIGLPPETTQFLASHTLDYAIVDCSHPPQTMLPRNHNDITRALEIFTQLNPKQLYLTHISHELDRWLQTQTLLPENVHAAYDGLVLGLLEHHHHHH | not soluble |
| MLTEGISIQSYDGHTFGALVGSPAKAPAPVIVIAQDIFGVNAFMRETVSWLVDQGYAAVCPDLYARQAPGTALDPQDERQREQAYKLWQAFDMEAGVGDLEAAIRYARHQPYSNGKVGLVGYSLGGALAFLVASKGYVDRAVGYYGVGLEKQLNKVPEVKHPALFHMGGQDHFVPAPSRQLITEGFGANPLLQVHWYEEAGHSFARTGSSGYVASAAALANERTLDFLVPLQSRKP | soluble |
| MAPAPEVVSWAEAVEQDNAPHIQEGADGTRTETAFTEVDGVRWKVVTQFKVINKRVPKVVADRKKWVKFGSCKGEPAGPQVATTYVAEEVDMQFTRNRAGEQILDVQEDKQTAKTTSREHCRHCKGNDHWSTHCPYKVMYQLDEEADADKDTEKDRMAMGMRPDGRQIDRNRSDENTCRVTNLPQEMNEDELRDLFGKIGRVIRIFIARDKVTGLPKGFAFVTFESRDDAARAIAELNDIRMYHMVLKVEWTRPSN | not soluble |
| MAHHHHHHMRRSLVFPPCHLQEARLLQSQQLFGWYHQTRHFTSLVDRLSTGVARKLSSLTETHMMPLSEKHITEPRRPYPKRPSMQENLAERLAEQRRWRSRVVPQQIILSKDKLYIEFVWSAATLSAAAAREMRQQQNNEEENGDGCTQKRKGISCGSFANDGIIKSEKLMSHRTRFLAEFLRAYSPSTDVIGADALIYGRRGITITDVIPVGNYALRIVFSDGHSGGIYPYEYLFHLGQCKYTKMREYIRRLREKRKSRDPPKRVPSKYVPRGRNAAEGTPKRDKTDDCGHRVAAK | not soluble |
| MSLQEIKGLSFYHQDWEVYCSNTGTCRAAGYQSDDGSQQPASILLTREAGSKQPVQAEFALAGDDQETFAANKIKNIRFYVNGKDLGTVSVKGVDSPLMGKLSTAQVNGLLQQATQKVDIVFKNNHYVWKISDSGMTAALLKVDDFQKRIGTVGALVKKGKSDDSKVLMPQPKLVIKKVKTADQPYLTLNPKNKQYASLYKLLMAAQPTPKEDGFCEGVYDFDSDAITAQSIELYKLTNNKVLATTLCWRGAYNEGYGAWVLNQSLTGPATYITQSASDIASGIISSAQKGRGIGDCWMSQSWIWNGQKYVQNQDMWTGMCKGLAAGGVWELDQIEAVVKEGHHHHHH | soluble |
| MGSDKIHHHHHHMRYLRADERCLICSLRQAENLLKKTITSPEKRWVIFREVFRIMSEMKWGMKPLEVNGEVHRFIMEYIKEEDPFKEEKRRSNDMAIKLVEMFRPEILNSPDPVYSAAKLAVSGNLIDLGIPGWSVDEIFEKLHEVYERPFDREDFEKFRNVLMNASTLFYVADNAGEIVFDKFFIEVLKMENPSLEVVVAVRGKPIINDATIEDAKYIGLEEIATVISSGVDEPGVMLDKASEEFRKAFFEFDVVISKGQGNFEGLYEEEKKNLFFLLTAKCDFVAEVLNVPLGGKVFISSSSL | not soluble |
| MSLEKLKSTEFYASQIKHCFTIPSRTAKYKGLCFELAPEVYQGMEHENFYSHQADAINSLHQGENVIITTSTSSGKSLIYQLAAIDLLLKDPESTFMYIFPTKALAQDQKRAFKVILSKIPELKNAVVDTYDGDTEPEERAYIRKNARVIFTNPDMIHTSILPNHANWRHFLYHLKLVVVDELHIYKGLFGSHVALVMRRLLRLCHCFYENSGLQFISCSATLKSPVQHMKDMFGINEVTLIHEDGSPTGAKHLVVWNPPILPQHERKRENFIRESAKILVQLILNNVRTIAFCYVRRVCELLMKEVRNIFIETGREDLVTEVMSYRGGYSASDRRKIEREMFHGNLKAVISTNALELGIDIGGLDAVLMCGFPLSMANFHQQSGRAGRRNNDSLTLVVASDSPVDQHYVAHPESLLEVNNFESYQDLVLDEGHHHHHH | not soluble |
| MGSDKIHHHHHHMKKASTLPLFERLVQHDRGGPISCHVPGHKQGALFHKDACSYFQSILSLDVTELTGLDDLHDPRGVIAEAQALTARYVGAEATCFLVNGSTVGNLAMILGTLEPGDTVFVQRDSHKSVMNGLAMARVHPIFLSPSYDERTQLPTGITEQTLKQALIEHPNGKALILTYPSYYGVARSIRPLVQMAKEAGLYVLVDEAHGAHFPVGDPFPKQALEQGADVVVQSAHKTLPALTMGSYLHFAHGLHSKIKDSIREQLQILQSSSPSYPILASLDAARGFLEDLTNVKDTLDSIAEMNRRIEQVERLSVATFSPLPTDPLKTVITVEGATGFALQTELEKEGIYSELADDRHVLLMWGLTPLQKVRQEEIIDKMCRATKRLPALEQISKGCPLSLSWQAHTSLDLSYDEQKRYSIEEVAVEEAVGKVSGATVIPYPPGVPLLLKGEKITEPLIAQFQQLQEAGARFQGRPSEQQGLYVFTLEAMT | not soluble |
| MSLGILEQLENPKFKATKSEKTLIEYIKSDLDNIIYKSISIIAKESGVGEATITRFTKKLGFNGFQDFKVTLAKEISNKKNTSIINLHVHRDESVTETANKMLKSSINILEQTVKQIDLDLMCKCRDLIMNAKRVYFIGIGYSGIAATDINYKFMRIGFTTVPVTDSHTMVIMSSITNDDDVIVAISNSGTTKEVIKTVKQAKENGTKIITLTEDSDNPLRKLSDYELTYTSAETIFETGSISSKIPQIFLLDLLYTEVIKEMFSEAVEKKIKTTSAILNEGHHHHHH | soluble |
| MAVSVGEGPDTKPTARGQPAAVGRVVVLSGPSAVGKSTVVRCLRERIPNLHFSVSATTRCPRPGEVDGVDYHFIDPTRFQQLIDQGELLEWAEIHGGLHRSGTLAQPVRAAAATGVPVLIEVDLAGARAIKKTMPEAVTVFLAPPSWQDLQARLIGRGCETADVIQRRLDTARIELAAQGDFDKVVVNRRLESACAELVSLLVGTAPGSPGVPRGKLAAALEHHHHHH | soluble |
| GFPSPAADYVEQRIDLNQLLIQHPSATYFVKASGDSMIDGGISDGDLLIVDSAITASHGDIVIAAVDGEFTVKKLQLRPTVQLIPMNSAYSPITISSEDTLDVFGVVIHVVKAATR | soluble |
| MSLAGAVALSLFDELDVVFGPAALADALFYRHSPALRFELEGGKTYIAQFLQAVDRARTVLNVAFAGMEAVTAVLGVWGDDPPAQLWATAEAALHELGIKLPAPELSASELPTPETRVLHGEEDTQVLFAFTLSTARLPELLWGSLAADLGIFPQLRGRLWLAAPELGLLACPYDSRGMDMIGPNTARLAQLYHQFGDWLLDHDRARMAEMLSPGSKEGHHHHHH | soluble |
